Here are results for 1 molecule from US20170073395A1 (Pfizer, published 2017).

For assay [1], the target named is T1, BSA (UniProt P02769 25-607).
T1 construct: Non-target panel protein (albumins)
The assay is described as follows: Biacore specificity assay: IgG immobilised (about 300 RU), antigen injected at 500 nM. As for the experimental part:
(§1) Biacore specificity analyses were performed using the T-200 biosensor, series S CM5 chips, an amine-coupling kit, 10 mM sodium acetate immobilization buffer at pH 5.0, 10× HBS-P running buffer and NaOH for regeneration (GE Healthcare). A predefined ligand (IgG) immobilization program was set up to immobilize approximately 300 Response Units (RU) on the flow cell for each IgG to be tested. For Anti-RAGE and anti-A33, a panel of fully-purified recombinant target and non-target antigens were diluted in HBS-P running buffer to a final concentration of 500 nM. Four groups of antigens were examined, including: cell membrane proteins (mTRKB, hTRKB, mEGFR, hEGFR, hFceR1, hIL-21R, mICAM1, mICAM2, hICAM1, hCD33, hLAMP-1, hLOX-1, and), soluble signaling molecules (mTNFa, hVEGF, hCXCL13) and albumins (BSA, HSA and MSA). These proteins were injected at 50 μl/min for 3 min, followed by a 5 sec pulse of 20 mM NaOH for regeneration of the chip surface. For pTau, a series of pTau-derived phosphorylated and non-phosphorylated peptides were flowed, as in Shih et al.³. All sensorgrams were analyzed using the Biacore T-200 evaluation software.

Assay [2] has as its target T2, MSA (UniProt P07724 25-608).
T2 construct: Non-target panel protein (albumins)
The description is as above. As for the experimental part:
as §1

Assay [3] addresses T3, hTRKB (human, UniProt Q16620 32-430, limits assumed).
T3 construct: Non-target panel protein
The assay is described as above. As for the experimental part:
as §1

Assay [4] deals with T4, hFceR1 (human, UniProt P12319 26-205).
T4 construct: Non-target panel protein
T4 sequence (alpha): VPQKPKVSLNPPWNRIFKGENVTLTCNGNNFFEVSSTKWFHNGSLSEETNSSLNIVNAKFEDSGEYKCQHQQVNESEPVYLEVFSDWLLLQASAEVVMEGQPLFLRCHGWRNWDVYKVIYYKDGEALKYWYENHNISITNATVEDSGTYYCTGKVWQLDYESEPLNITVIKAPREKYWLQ
The assay is described as above. The protocol:
as §1

The target in assay [5] is T5, mEGFR (mouse, UniProt Q01279 25-647, limits assumed).
T5 construct: Non-target panel protein
The description is as above. The protocol:
as §1

Assay [6] concerns the target T6, mTRKB (mouse, UniProt P15209 32-429, limits assumed).
T6 construct: Non-target panel protein
Described as above. As for the experimental part:
as §1

In assay [7] the target is T7, hCXCL13 (human, UniProt O43927 23-109).
T7 construct: Non-target panel protein
T7 sequence (looked up): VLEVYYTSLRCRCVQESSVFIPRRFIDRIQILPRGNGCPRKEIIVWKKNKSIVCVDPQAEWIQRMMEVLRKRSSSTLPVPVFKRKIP
The description is as above. The protocol: as §1

Assay [8] has as its target T8, HSA (UniProt P02768 25-609).
T8 construct: Non-target panel protein (albumins)
Described as above. The protocol:
as §1

Assay [9] addresses hLOX-1 (human, UniProt P78380 61-273). The description is as above. As for the experimental part: as §1
The target of assay [10] is T9, hVEGF (human, UniProt P15692-4 27-191, limits assumed).
T9 construct: Non-target panel protein
Described as above. As for the experimental part: as §1

Assay [11] has as its target T10, hEGFR (human, UniProt P00533 25-645, limits assumed).
T10 construct: Non-target panel protein
Described as above. The protocol:
as §1

Assay [12] deals with T11, hICAM1 (human, UniProt P05362 28-480, limits assumed).
T11 construct: Non-target panel protein
Described as above. The protocol:
as §1

The target of assay [13] is T12, hIL-21R (human, UniProt Q9HBE5 20-232, limits assumed).
T12 construct: Non-target panel protein
The assay is described as above. The protocol: as §1

The target of assay [14] is T13, RAGE (cognate target of the anti-RAGE antibodies; species not stated at the place) (Homo sapiens (Human), UniProt Q15109 23-342).
T13 construct: not shown: Carrier or tag of the soluble construct
Put plainly: Biacore SPR. The protocol:
ABS leads in human IgG1 format were analyzed for specificity and stability.
(§2) Biacore analysis was performed using the T-200 biosensor, series S CM5 chips, an amine-coupling kit, 10 mM sodium acetate immobilization buffer at pH 5.0, 10×HBS-P running buffer and NaOH for regeneration (GE Healthcare). Kinetic assay conditions were established to minimize the influence of mass transfer, avidity and rebinding events. A predefined ligand immobilization program was set up to immobilize approximately 100 Response Units (RU) of IgG on the chip. Purified target proteins were diluted in HBS-P running buffer to a range of final concentrations and injected at 50 μl/min for 3 mins. Dissociation was allowed to proceed for 10 min followed by a 5 sec pulse of 20 mM NaOH for regeneration of the chip surface. All sensorgrams were analyzed using the Biacore T-200 evaluation software.
In general terms: In SPR one partner is held on a chip, and binding of the other changes the refractive index at the surface.

Assay [15] addresses T13, RAGE (cognate target of the anti-RAGE …). Put plainly: Biacore T-200 SPR, IgG immobilised (~100 RU), purified target protein injected. As for the experimental part:
as §2

Assay [16] has the same target. The assay is described as follows: HTRF epitope competition, IgG titrated; competitor parental IgG (Par-RAGE). A general note: Time-resolved FRET reads energy transfer from a long-lived donor to a nearby acceptor.
In assay [17] the target is T14, mRAGE (mouse, UniProt Q62151 24-342, limits assumed).
T14 construct: also called mouse RAGE
Put plainly: Biacore specificity assay: IgG immobilised (about 300 RU), antigen m-RAGE-fc injected at 500 nM. As for the experimental part: as §1

T13 sequence (Q15109 23-342 limits assumed): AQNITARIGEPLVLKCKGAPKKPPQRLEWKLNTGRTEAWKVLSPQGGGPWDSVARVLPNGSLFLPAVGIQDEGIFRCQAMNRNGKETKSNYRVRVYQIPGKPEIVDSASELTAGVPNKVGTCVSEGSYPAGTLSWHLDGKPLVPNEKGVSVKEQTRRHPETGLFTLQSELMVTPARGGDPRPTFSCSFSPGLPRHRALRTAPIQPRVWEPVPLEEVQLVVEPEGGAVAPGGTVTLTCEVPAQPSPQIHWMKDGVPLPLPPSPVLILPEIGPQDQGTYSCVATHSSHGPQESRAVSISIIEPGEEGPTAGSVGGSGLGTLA
T8 sequence (P02768 25-609): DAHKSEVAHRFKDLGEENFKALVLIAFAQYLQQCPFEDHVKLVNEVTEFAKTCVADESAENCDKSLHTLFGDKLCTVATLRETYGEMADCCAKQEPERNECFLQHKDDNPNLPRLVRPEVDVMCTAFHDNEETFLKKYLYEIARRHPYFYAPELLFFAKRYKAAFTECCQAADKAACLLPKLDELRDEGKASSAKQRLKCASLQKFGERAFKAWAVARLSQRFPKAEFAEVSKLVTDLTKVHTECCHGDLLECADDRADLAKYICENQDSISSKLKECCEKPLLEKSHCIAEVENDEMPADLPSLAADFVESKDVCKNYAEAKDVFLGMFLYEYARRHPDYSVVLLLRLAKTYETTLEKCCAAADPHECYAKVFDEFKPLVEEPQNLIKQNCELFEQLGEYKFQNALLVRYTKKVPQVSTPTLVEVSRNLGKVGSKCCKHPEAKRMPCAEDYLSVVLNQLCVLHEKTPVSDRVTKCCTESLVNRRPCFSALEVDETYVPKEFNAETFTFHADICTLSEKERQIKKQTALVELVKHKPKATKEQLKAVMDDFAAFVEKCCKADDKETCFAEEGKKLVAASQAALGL
T14 sequence (Q62151 24-342 limits assumed): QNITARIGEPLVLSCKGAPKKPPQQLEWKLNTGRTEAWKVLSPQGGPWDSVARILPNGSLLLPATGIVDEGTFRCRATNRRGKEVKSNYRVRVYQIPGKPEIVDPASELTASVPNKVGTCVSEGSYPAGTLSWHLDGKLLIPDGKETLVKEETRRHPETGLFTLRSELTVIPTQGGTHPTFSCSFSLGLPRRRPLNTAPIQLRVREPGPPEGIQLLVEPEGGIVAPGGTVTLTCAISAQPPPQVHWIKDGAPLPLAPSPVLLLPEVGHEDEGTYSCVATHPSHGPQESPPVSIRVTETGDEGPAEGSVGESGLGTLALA
T1 sequence (P02769 25-607 limits assumed): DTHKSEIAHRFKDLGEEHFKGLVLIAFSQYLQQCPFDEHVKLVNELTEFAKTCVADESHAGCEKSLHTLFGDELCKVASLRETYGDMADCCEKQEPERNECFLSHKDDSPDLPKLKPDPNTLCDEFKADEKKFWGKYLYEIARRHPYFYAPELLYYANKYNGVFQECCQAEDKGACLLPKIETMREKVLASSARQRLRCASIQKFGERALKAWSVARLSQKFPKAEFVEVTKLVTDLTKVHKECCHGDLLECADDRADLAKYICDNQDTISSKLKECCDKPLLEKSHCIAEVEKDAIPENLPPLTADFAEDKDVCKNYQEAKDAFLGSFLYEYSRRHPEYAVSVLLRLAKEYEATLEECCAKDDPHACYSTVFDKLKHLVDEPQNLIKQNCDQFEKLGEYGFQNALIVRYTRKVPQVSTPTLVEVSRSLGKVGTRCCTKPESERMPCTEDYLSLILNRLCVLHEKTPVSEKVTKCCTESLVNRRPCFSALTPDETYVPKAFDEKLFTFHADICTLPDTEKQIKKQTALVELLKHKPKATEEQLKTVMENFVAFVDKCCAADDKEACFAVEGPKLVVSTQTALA
T12 sequence (Q9HBE5 20-232 limits assumed): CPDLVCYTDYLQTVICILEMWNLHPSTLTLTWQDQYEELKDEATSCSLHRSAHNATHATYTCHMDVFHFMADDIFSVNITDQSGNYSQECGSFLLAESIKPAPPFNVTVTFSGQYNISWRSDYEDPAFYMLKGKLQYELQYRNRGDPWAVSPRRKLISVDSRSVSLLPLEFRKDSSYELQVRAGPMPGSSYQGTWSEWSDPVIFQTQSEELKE
T9 sequence (P15692 other isoform, or with tags, fused parts or gaps limits assumed): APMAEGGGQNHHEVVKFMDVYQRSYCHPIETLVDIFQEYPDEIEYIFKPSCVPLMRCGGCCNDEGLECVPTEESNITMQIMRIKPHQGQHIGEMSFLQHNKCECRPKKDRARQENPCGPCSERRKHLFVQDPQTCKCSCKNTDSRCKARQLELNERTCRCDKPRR
T3 sequence (Q16620 32-430 limits assumed): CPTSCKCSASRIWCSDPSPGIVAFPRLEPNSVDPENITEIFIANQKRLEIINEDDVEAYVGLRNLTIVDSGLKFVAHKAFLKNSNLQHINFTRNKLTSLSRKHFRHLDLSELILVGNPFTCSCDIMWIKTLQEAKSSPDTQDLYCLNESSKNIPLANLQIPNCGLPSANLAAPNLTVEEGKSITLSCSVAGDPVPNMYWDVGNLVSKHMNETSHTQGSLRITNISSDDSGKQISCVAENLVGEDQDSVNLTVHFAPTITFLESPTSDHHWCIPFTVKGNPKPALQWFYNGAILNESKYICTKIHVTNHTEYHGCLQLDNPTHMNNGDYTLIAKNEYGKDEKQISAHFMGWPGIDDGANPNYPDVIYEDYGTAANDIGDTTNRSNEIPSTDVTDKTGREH
T11 sequence (P05362 28-480 limits assumed): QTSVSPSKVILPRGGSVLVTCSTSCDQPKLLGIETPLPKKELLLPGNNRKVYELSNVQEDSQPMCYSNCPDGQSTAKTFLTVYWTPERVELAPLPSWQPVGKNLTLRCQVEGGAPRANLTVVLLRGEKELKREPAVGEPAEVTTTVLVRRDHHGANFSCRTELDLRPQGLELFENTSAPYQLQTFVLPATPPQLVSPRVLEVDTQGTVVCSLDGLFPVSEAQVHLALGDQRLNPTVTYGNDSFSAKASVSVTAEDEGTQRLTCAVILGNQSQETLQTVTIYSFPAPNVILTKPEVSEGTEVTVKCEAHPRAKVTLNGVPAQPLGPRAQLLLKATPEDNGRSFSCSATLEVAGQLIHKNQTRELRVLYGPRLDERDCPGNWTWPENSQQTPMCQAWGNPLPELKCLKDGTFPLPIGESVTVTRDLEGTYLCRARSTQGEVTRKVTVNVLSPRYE
T6 sequence (P15209 32-429 limits assumed): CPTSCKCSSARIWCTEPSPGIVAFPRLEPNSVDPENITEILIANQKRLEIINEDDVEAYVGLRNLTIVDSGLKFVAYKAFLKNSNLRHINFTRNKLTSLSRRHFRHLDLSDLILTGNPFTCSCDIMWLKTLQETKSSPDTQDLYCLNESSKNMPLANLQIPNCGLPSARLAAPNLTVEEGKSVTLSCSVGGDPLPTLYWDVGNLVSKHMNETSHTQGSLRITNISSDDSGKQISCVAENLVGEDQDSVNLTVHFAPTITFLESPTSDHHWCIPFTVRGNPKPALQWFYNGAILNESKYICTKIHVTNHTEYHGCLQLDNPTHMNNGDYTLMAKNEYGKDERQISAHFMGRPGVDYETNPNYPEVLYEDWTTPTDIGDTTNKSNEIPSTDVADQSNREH

B1: C7-ABS-RAGE IgG (human IgG1) (antibody, V domains shown)
VH: EVQLVESGGGLVQPGGSLRLSCAASGFTFSSYWMSWVRQAPGKGLEWVASIDQDGSNKYYPDSVKGRFTISRDNAKNSLYLQMNSLRAEDTAVYYCARGGDITTGLDYWGQGTLVTVSS
VL: DIQMTQSPSSLSASVGDRVTITCRASQSIGSYLNWYQQKPGKAPKLLIYRASSLASGVPSRFSGSGSGTDFTLTISSLQPEDFATYYCLEFDEHPLTFGGGTKVEIK
notes: Human IgG1 format
For B1, the binding result in [1], in assay [2], in assay [3], in assay [4], in assay [5] and in assay [6] was “no binding (tested: 500 nM)” throughout. In addition, the binding result in assay [7], in assay [8], in assay [9], in [10], in [11] and in assay [12] was “no binding (tested: 500 nM)” throughout. Besides, the binding result in [13] is “no binding (tested: 500 nM)”; in [17], “binds”. Also, the “fold affinity improvement over Par-RAGE” value in assay [14] is approximately 2 fold. Besides, the Kd (usually the equilibrium constant for the complex coming apart) in assay [15] amounted to 17 nM. The IC50 (usually the concentration needed to halve the response being measured) in assay [16] turned out to be 5.8 nM.
